{
  "source": "patent US20160083480A1",
  "about": "(Zymeworks, published 2016)",
  "binders": {"B1": {"name": "v877 (monospecific bivalent antibody with two identical HER3-binding scFvs connected to a homodimeric Fc) (antibody, V domains shown)", "VH": "QVQLQESGGGLVKPGGSLRLSCAASGFTFSSYWMSWVRQAPGKGLEWVANINRDGSASYYVDSVKGRFTISRDDAKNSLYLQMNSLRAEDTAVYYCARDRGVGYFDLWGRGTLVTVSS", "VL": "QSALTQPASVSGSPGQSITISCTGTSSDVGGYNFVSWYQQHPGKAPKLMIYDVSDRPSGVSDRFSGSKSGNTASLIISGLQADDEADYYCSSYGSSSTHVIFGGGTKVTVL", "notes": "also called variant 877; monospecific bivalent control for HER3"}, "B2": {"name": "Variant 880 (bi-specific anti-HER2-HER3 antibody; B1D2 scFv on chain A, H3 scFv on chain B, heterodimeric Fc) (bispecific antibody)", "scFv-Fc A": "QVQLVQSGAEVKKPGESLKISCKGSGYSFTSYWIAWVRQMPGKGLEYMGLIYPGDSDTKYSPSFQGQVTISVDKSVSTAYLQWSSLKPSDSAVYFCARHDVGYCTDRTCAKWPEWLGVWGQGTLVTVSSGGGGSSGGGSGGGGSQSVLTQPPSVSAAPGQKVTISCSGSSSNIGNNYVSWYQQLPGTAPKLLIYDHTNRPAGVPDRFSGSKSGTSASLAISGFRSEDEADYYCASWDYTLSGWVFGGGTKLTVLGAAEPKSSDKTHTCPPCPAPELLGGPSVFLFPPKPKDTLMISRTPEVTCVVVDVSHEDPEVKFNWYVDGVEVHNAKTKPREEQYNSTYRVVSVLTVLHQDWLNGKEYKCKVSNKALPAPIEKTISKAKGQPREPQVYTYPPSRDELTKNQVSLTCLVKGFYPSDIAVEWESNGQPENNYKTTPPVLDSDGSFALVSKLTVDKSRWQQGNVFSCSVMHEALHNHYTQKSLSLSPGK", "scFv-Fc B": "not shown", "notes": "also called v880; bsAb variant 880"}},
  "key": {"[1]": {"molecular_target": "T1, HER3 on human tumour cells (human, UniProt P21860 20-1342)", "T1 construct": "whole, on cells; also called ErbB3", "test": "flow cytometry on MALME-3M cells, fluorochrome-labelled secondary antibody", "description": "(§1) The FACS analysis was carried out as described below.\n(§2) Cells were washed with PBS and resuspended in DMEM containing 10% FBS at 1×10⁵ cells/100 μl. 100 μl cell suspension was added into each microcentrifuge tube, followed by 10 μl/tube of the antibody variants. The tubes were incubated for 2 hr 4° C. on a rotator. The microcentrifuge tubes were centrifuged for 2 min 2000 RPM at room temperature and the cell pellets washed with 500 μl media. Each cell pellet was resuspended 100 μl of fluorochrome-labelled secondary antibody diluted in media to 2 μg/sample. The samples were then incubated for 1 hr at 4° C. on a rotator. After incubation, the cells were centrifuged for 2 min at 2000 RPM and washed in media. The cells were resuspended in 500 μl media, filtered in tube containing 5 μl propidium iodide (PI) and analyzed on a BD™ LSRII flow cytometer according to the manufacturer's instructions."}, "[2]": {"molecular_target": "T2, HER2 and HER3 co-expressed on human tumour cells (human, UniProt P04626 23-1255; P21860 20-1342)", "T2 construct": "whole, on cells; also called HER2/3-expressing cells; cells expressing HER2 and HER3", "test": "flow cytometry on MALME-3M cells, fluorochrome-labelled secondary antibody", "description": "as §1, §2"}, "[3]": {"molecular_target": "T2, HER2 and HER3 co-expressed on human …", "test": "cell-based or functional assay"}},
  "data": [
    {"binder": "B1", "values": [
      {"measurement": "binding result", "setting": "[1]", "value": "binds"}
    ]},
    {"binder": "B2", "values": [
      {"measurement": "EC50 (read off the curve)", "setting": "[2]", "value": "~10", "unit": "nM"},
      {"measurement": "BT-474 cell viability relative to untreated cells (Sulforhodamine B, 6 days, no heregulin)", "setting": "[3]", "value": 36, "unit": "% increase"}
    ]}
  ]
}
